In the experiment the target is α-casein.
As for “transglutaminase preparation (culture broth) of Agaricus sp. (pool or library)”, the Units/ml (putrescine assay) worked out at 0.15 Units/ml.
In the case of “transglutaminase preparation (culture broth) of Alternaria alternata (pool or library)” it was 0.16 Units/ml.
With “transglutaminase preparation (culture broth) of Amanita virosa (pool or library)”, the Units/ml (putrescine assay) came to 0.14 Units/ml.
For the substance “transglutaminase preparation (culture broth) of Amylostereum chailletii (pool or library)”, the Units/ml (putrescine assay) was determined as 0.44 Units/ml.
In the case of “transglutaminase preparation (culture broth) of Antrodia serialis (pool or library)” it was 0.8 Units/ml; in that of “transglutaminase preparation (culture broth) of Armillaria sp. (pool or library)”, 0.62 Units/ml; in that of “transglutaminase preparation (culture broth) of Ascotricha erinacea (pool or library)”, 0.15 Units/ml.
In the case of “transglutaminase preparation (culture broth) of Aspergillus foetidus (pool or library)” it was 0.23 Units/ml; in that of “transglutaminase preparation (culture broth) of Aspergillus giganteus (pool or library)”, 0.19 Units/ml.
In the case of “transglutaminase preparation (culture broth) of Aspergillus heteromorphus (pool or library)” it was 0.12 Units/ml; in that of “transglutaminase preparation (culture broth) of Aspergillus puniceus (pool or library)”, 0.12 Units/ml; in that of “transglutaminase preparation (culture broth) of Aspergillus tamarii (pool or library)”, 0.16 Units/ml.
“transglutaminase preparation (culture broth) of Auricularia polytricha (pool or library)” came in with a Units/ml (putrescine assay) of 0.18 Units/ml.
In turn, “transglutaminase preparation (culture broth) of Beauveria calendonica (pool or library)” displayed a Units/ml (putrescine assay) of 0.25 Units/ml.
In the case of “transglutaminase preparation (culture broth) of Beauveria cylindrospora (pool or library)” it was 0.24 Units/ml; in that of “transglutaminase preparation (culture broth) of Botryosphaeria rhodina (pool or library)”, 0.32 Units/ml; in that of “transglutaminase preparation (culture broth) of Byssochlamys fulva (pool or library)”, 0.24 Units/ml.
In the case of “transglutaminase preparation (culture broth) of Carponia solliomaris (pool or library)” it was 0.11 Units/ml.
In the case of “transglutaminase preparation (culture broth) of Cercospora beticola (pool or library)” it was 1.58 Units/ml; in that of “transglutaminase preparation (culture broth) of Cercospora carisis (pool or library)”, 13 Units/ml.
In turn, “transglutaminase preparation (culture broth) of Cercospora fusimaculans (pool or library)” displayed a Units/ml (putrescine assay) of 1.3 Units/ml.
“transglutaminase preparation (culture broth) of Cercospora hayi (pool or library)” came in with a Units/ml (putrescine assay) of 0.26 Units/ml.
The substance “transglutaminase preparation (culture broth) of Cercospora sesami (pool or library)” registered a Units/ml (putrescine assay) of 0.24 Units/ml.
In the case of “transglutaminase preparation (culture broth) of Cercospora traversiana (pool or library)” it was 0.53 Units/ml.
As to “transglutaminase preparation (culture broth) of Chaetomium funicolum (pool or library)”, the Units/ml (putrescine assay) is 0.16 Units/ml.
In the case of “transglutaminase preparation (culture broth) of Chamaemyces fracidus (pool or library)” it was 0.2 Units/ml; in that of “transglutaminase preparation (culture broth) of Cladosporium cladosporiodes (pool or library)”, 0.22 Units/ml.
“transglutaminase preparation (culture broth) of Cladosporium oxysporum (pool or library)”: the Units/ml (putrescine assay) was found to be 0.19 Units/ml.
In the case of “transglutaminase preparation (culture broth) of Cladosporium resinae (pool or library)” it was 0.14 Units/ml.
In the case of “transglutaminase preparation (culture broth) of Cladosporium sphaeospermum (pool or library)” it was 1.07 Units/ml.
In the case of “transglutaminase preparation (culture broth) of Cochliobolus sativus (pool or library)” it was 0.09 Units/ml; in that of “transglutaminase preparation (culture broth) of Coniothyrium cerealis (pool or library)”, 0.13 Units/ml; in that of “transglutaminase preparation (culture broth) of Coprinus cinereus (pool or library)”, 0.14 Units/ml.
For “transglutaminase preparation (culture broth) of Coprinus sp. (pool or library)”, the Units/ml (putrescine assay) worked out at 0.44 Units/ml.
In the case of “transglutaminase preparation (culture broth) of Cunninghamella elegans (pool or library)” it was 0.23 Units/ml; in that of “transglutaminase preparation (culture broth) of Curvularia borreiae (pool or library)”, 0.28 Units/ml; in that of “transglutaminase preparation (culture broth) of Dendryphiella salina (pool or library)”, 0.96 Units/ml.
For the substance “transglutaminase preparation (culture broth) of Dimorphosporum disporatrichum (pool or library)”, the Units/ml (putrescine assay) stood at 0.42 Units/ml.
In the case of “transglutaminase preparation (culture broth) of Fusarium armeniacum (pool or library)” it was 0.19 Units/ml; in that of “transglutaminase preparation (culture broth) of Fusarium decemcellulare (pool or library)”, 0.1 Units/ml.
For “transglutaminase preparation (culture broth) of Fusarium dimerum (pool or library)”, the Units/ml (putrescine assay) was found to be 0.25 Units/ml.
In the case of “transglutaminase preparation (culture broth) of Fusarium flocciferum (pool or library)” it was 0.15 Units/ml; in that of “transglutaminase preparation (culture broth) of Fusarium merismoides (pool or library)”, 0.16 Units/ml.
In the case of “transglutaminase preparation (culture broth) of Fusarium redolens (pool or library)” it was 0.16 Units/ml.
As to “transglutaminase preparation (culture broth) of Gymnopilus junonius (pool or library)”, the Units/ml (putrescine assay) amounted to 0.2 Units/ml.
In the case of “transglutaminase preparation (culture broth) of Halosphaeriopsis mediosetigera (pool or library)” it was 0.34 Units/ml; in that of “transglutaminase preparation (culture broth) of Hortea werneckii (pool or library)”, 0.95 Units/ml; in that of “transglutaminase preparation (culture broth) of Humicola alopallonella (pool or library)”, 0.76 Units/ml.
In the case of “transglutaminase preparation (culture broth) of Hygrophoropsis aurantiaca (pool or library)” it was 0.17 Units/ml; in that of “transglutaminase preparation (culture broth) of Hymenochaete corticola (pool or library)”, 1.31 Units/ml; in that of “transglutaminase preparation (culture broth) of Hypholoma fasciculare (pool or library)”, 0.14 Units/ml.
In the case of “transglutaminase preparation (culture broth) of Kuhneromyces variabilis (pool or library)” it was 0.14 Units/ml; in that of “transglutaminase preparation (culture broth) of Lignincola sp. (pool or library)”, 0.15 Units/ml; in that of “transglutaminase preparation (culture broth) of Lulworthia uniseptata (pool or library)”, 0.36 Units/ml.
Consider “transglutaminase preparation (culture broth) of Lyophyllum sp. (pool or library)”, for which the Units/ml (putrescine assay) came to 0.25 Units/ml.
In the case of “transglutaminase preparation (culture broth) of Monodictys pelagica (pool or library)” it was 2.31 Units/ml.
Consider “transglutaminase preparation (culture broth) of Mucor aligarensis (pool or library)”, for which the Units/ml (putrescine assay) came to 0.31 Units/ml.
In the case of “transglutaminase preparation (culture broth) of Mucor luteus (pool or library)” it was 0.34 Units/ml.
